In paper doi:10.1101/2022.10.23.513379 (bioRxiv, 2022):

B1: 2-7 MB (mono-specific Multabody of specificity 2-7) (complex)
VH: QITLKESGPTLVKPTQTLTLTCTFSGFSLSTSGVGVGWIRQPPGKALEWLALIYWDDDKRYSPSLKSRLTITKDTSKNQVVLTMTNMDPVDTATYYCAHHKIERIFDYWGQGTLVTVSS
VL: SALAQPASVSGSPGQSITISCTGTSSDVGAYNYVSWYQQHPGKAPKLMIYDVSKRPSGVSNRFSGSKSGNTASLTISGLQAEDEADYYCSSYTTSSTVFGGGTKLTVL
B2: 2-7 IgG (antibody, V domains shown)
VH: B1 VH
VL: B1 VL
B3: 80 Fab (Fab, V domains shown)
VH: QVQLVQSGAEVKKPGSSVKVSCKASGGTFNRYAFSWVRQAPGQGLEWMGGIIPIFGTANYAQKFQGRVTITADESTSTAYMELSSLRSEDTAVYYCARSTRELPEVVDWYFDLWGRGTLVTVSS
VL: not shown
B4: 80 MB (mono-specific Multabody of specificity 80) (complex)
VH: B3 VH
VL: not shown
B5: 80 IgG (antibody, V domains shown)
VH: B3 VH
VL: not shown

Key:
[1] = molecular target: T1, His-tagged wildtype SARS-CoV-2 RBD (BEI NR52309) (SARS-CoV-2, wildtype (Wuhan-Hu-1), UniProt P0DTC2); assay: BLI
[2] = molecular target: T1, His-tagged wildtype SARS-CoV-2 RBD (BEI …); assay: crystal structure

Binder	binding result [1]	binding result [2]
B1	binds	
B2	binds	
B3		binds
B4	binds	
B5	binds	
